Results published in patent publication US8598081B2, “Specific delivery of agrochemicals” (priority 2010, dated 2013).

B1: VHH 3E6: VHH binding gum arabic, potato lectin and leaf surface; SEQ ID NO:7 by order of the list (protein, listed as Lama glama)
VHH: QVQLQESGGGLVQPGGTLSLSCAASGFNVRWYGMGWFRQAPGKEREGVACISALQETTAYADSVKGRFTLSRDNPKNTLSLQMNNLQPEDTGVYYCATTDCDDSSRMTYTSYLGQGTQVTVSS
modifications: 3E6
B2: Microcapsules containing uvitex OB VHH 3E6: polyurea microcapsules containing the fluorescent tracer Uvitex OB, coupled with (monovalent) VHH 3E6 (conjugate)
VHH: B1 VHH
modifications: left off: small tags and cut ends
notes: polyurea microcapsules containing the fluorescent tracer Uvitex OB, coupled with (monovalent) VHH 3E6

Key:
[1] = test system: potato leaf discs; experiment: VHH binding at different temperatures, leaf dip experiment; set-up: species or system potato (variety Desiree); conditions: temperature range from 4° C. to 55° C.; 5 μg/ml in PBS; 1 hour
Experimental: In order to test applicability of VHH as binders for greenhouse or field applications where binding supposedly may occur at different and sometimes even extreme temperatures, a leaf dip VHH binding experiment at different temperatures was used. Temperatures used were 4° C., room temperature, 37° C., 55° C., or 70° C. ø 8 mm potato leaf discs (variety Desiree) were cut using a puncher tool. The leaf discs were equilibrated to different temperatures by washing three times with PBS at different temperatures. Hexahistidine-tagged VHH were diluted to 5 μg/ml in PBS at different temperatures, added to the corresponding equilibrated leaf discs, and binding of VHH was allowed for 1 hour at different temperatures. After incubation with VHH, leaf discs were washed five times with PBS at room temperature. Bound VHH were detected by incubation with monoclonal mouse anti-histidine antibodies directly conjugated with Alexa-488 fluorescent dye (Abd Serotec) in PBS for 1 hour at room temperature. Unbound anti-histidine antibodies were removed by washing five times with PBS at room temperature. Leaf discs were analyzed for bound VHH with microscopy. […] Please note that leaf discs severely suffer when submerged in PBS at 70° C. for 1 hour but that binding of VHH was still detected.

[2] = ELISA-like assay of VHH-coupled microcapsules, unrelated antigen-coated wells; assay type: binding; conditions: uvitex OB microcapsules
Experimental: Polyurea microcapsules were produced by interfacial polymerization. With the objective to generate functionalized polyurea microcapsules, VHH were coupled to microcapsules containing either the insecticide lambda cyhalothrin or the fluorescent tracer molecule Uvitex OB and a shell with incorporated lysine to surface-expose carboxylic acid residues. Lambda cyhalothrin was dissolved in benzyl benzoate in concentrations between 30% and 66% before encapsulation. Alternatively, a core of 1.5% Uvitex in benzyl benzoate was used for easy fluorescent visualization of microcapsules. Toluene diisocyanate (TDI) and polymethylenepolyphenylene isocyanate (PMPPI) were dissolved in the oil phase in different ratios and concentrations in the oil phase to produce desired shell characteristics. Stirring speed for the emulsion was varied to control droplet size and consequently microcapsule diameter. Microcapsules with approximate diameters of 5 μm, 10 μm, or 50 μm were successfully produced. Bifunctional lysine and trifunctional diethylene triamine (DETA) were used in different ratios and/or added sequentially during encapsulation to on the one hand maximize amounts of carboxylic acids on the microcapsules' surface and on the other hand obtain sufficient strength of capsule shells. Microcapsules were washed with water after production and stored as microcapsule suspensions in water. The microcapsules were washed with 100 mM MES, 500 mM NaCl, pH 6.0 immediately before coupling of VHH using a vacuum-tight filter flask and P 1.6 filter funnel (Duran). Alternatively, glass filter holders with 0.45 μm disposable membrane filters (Millipore) or 0.45 μm 96-well deep-well filtration plates (Millipore) were used. Couplings of VHH to microcapsules were performed using carbodiimide-mediated couplings using a one-step procedure, a two-step procedure without N-hydroxysuccinimide (NHS), or a two-step procedure with NHS. The major difference between one-step coupling and two-step coupling procedures is the occurrence of cross-linking of VHH in one-step coupling procedures. The protocols for the three procedures are largely similar and differ as follows. For one-step couplings VHH were added to washed microcapsules and 1-Ethyl-3-[3-dimethylaminopropyl]carbodiimide Hydrochloride (EDC) (Pierce) was added and coupling reaction was allowed for 2 hours at room temperature. For two-step couplings washed microcapsules were first activated with EDC in the presence or absence of NHS. Excess unreacted EDC (and NHS) were removed by quick sequential washes with ice-cold buffers and VHH were added and allowed to react with activated carboxylic acids on microcapsule shells. For ø 10 μm microcapsules 2-20 μg VHH were coupled per mg microcapsules. […]

Molecule | binding to leaf discs at different temperatures [1] | Area of bound microcapsules ([2]; no coating (second series, with unrelated antigen rows), surface coverage 100%) | Area of bound microcapsules ([2]; unrelated antigen, surface coverage 4%) | Area of bound microcapsules ([2]; unrelated antigen, surface coverage 20%) | Area of bound microcapsules ([2]; unrelated antigen, surface coverage 100%)
B1 | detectable binding | – | – | – | –
B2 | – | 68.181 | 23.525 | 47.906 | 84.508
